The DeepSol protein solubility set

Assay: soluble on expression in E. coli; label from the status in PepcDB or PDB records
With “MSPEKYLQDWQTSQTIAESISPLIGKLYRQKGIEVVLFGKTLINATTIDILKTHRVARRYTGSPLSLEHTMPIIQALCEMSISSCRVDVGQLATKYWNEHEDTAALNDFLQTALQGARDADSS” the “soluble on expression in E. coli” value was “not soluble”. In the case of “MSPETMFFQDEDSRNLATNFIANYLKLWDANRSELMILYQNESQFSMQVDSSHPHLIESGNSGYSGSTDFGYYLNNSRNLTRVSSIKARMAKLSIGQEQIYKSFQQLPKTRHDIIATPELFSMEVYKFPTLNGIMITLHGSFDEVAQPEVDGSASSAPSGPRGGSRYHSGPKHKRIPLSKKSFDRTFVVIPGPNGSMIVASDTLLIRPYTSDFPWKVQK”, the “soluble on expression in E. coli” value is reported as “soluble”. For “MSPGERFLDWLKRLQGQKAWTAARAAFRRSLAFPPGAYPRAMPYVEPFLAKGDWRQEEREAHYLVAALYALKDGDHQVGRTLARALWEKAQGSASVEKRFLALLEADRDQIAFRLRQAVALVEGGIDFARLLDDLLRWFSPERHVQARWAREYYGAGASEEEKKKEVEA”, the “soluble on expression in E. coli” value was “soluble”. With “MSPKFAADLKKTIYDNMTFDPKHYGGRWNILQDHGTSHLSIVDSERNAVSMTTTVNAYFGSLILSPSTGILLNNEMDDFSMPANTSANSPPPAPANFVRPLKRPLSSMTPTIILKDGNLKAAVGASGGSMIPAGTMEVLLNHFVKNMDPLSSVMAPRVYHQLIPNVVQYENWTTVTGDHFELDAATRADLRRKGHVLEPLAGGTISQLVVDDVERHGGLTAVSDPRKGGFPAGY” the “soluble on expression in E. coli” value was “soluble”. For “MSPLKPLYKLYEWYISRNLRRDRMPRHVAIIMDGNRRYSKLQGSMNPIEGHKKGIETLEKVLDWCVDLGIEIVTAYAFSTENFKRPEKEVKGLMKLFRENFEAIASNEKIHKNRVRVRAVGKLELLPEDVRRAIEIAEKSTEQYSDRLVNIAIGYDGRQEIVDATRKIAEDVKAGLIDPEDIDEDMINRNLYTAGLEDPHLIIRTSGEERLSGFLLWQSSYSELYFCDSLWPELRKVDFLRAIRSYQQRERRFGV”, the “soluble on expression in E. coli” value was “soluble”. For “MSPPSTIAYVLPPGFKFVPNDEEVIHCYLKPYSDGNTNVLLHVPIHLVNIYESNPQTLSEEFQKGNDKEWFIITERNKVDQGLSQTKRVGYGAKRQKRVDTNGGYWHATVAAQKINAGDGVVRNKRPLAYYVGKPSEGVKTDWLMQEYSLDHSSHNNDKDYTLCKIYLTPQATKMNKEVGEEKKKQKKGEAVVSVAPVEALEEQLPCNVEYHQPLAPLDSCQPQPHDLAYQQQQFCPGPLDSYQPQPHDMENQQPHNEKLKKEEDVEQLDLHQPDQGKGC”, the “soluble on expression in E. coli” value was “not soluble”. With “MSQEIRQNEKISYRIEGPFFIIHLINPDNLNALEGEDYIYLGELLELADRNRDVYFTIIQSSGRFFSSGADFKGIAKAQGDDTNKYPSETSKWVSNFVARNVYVTDAFIKHSKVLICCLNGPAIGLSAALVALCDIVYSINDKVYLLYPFANLGLITEGGTTVSLPLKFGTNTTYECLMFNKPFKYDIMCENGFISKNFNMPSSNAEAFNAKVLEELREKVKGLYLPSCLGMKKLLKSNHIDAFNKANSVEVNESLKYWVDGEPLKRFRQLGSKQRKHRL” the “soluble on expression in E. coli” value was “soluble”. With “MSQFTLYKNKDKSSAKTYPYFVDVQSDLLDNLNTRLVIPLTPIELLDKKAPSHLCPTIHIDEGDFIMLTQQMTSVPVKILSEPVNELSTFRNEIIAAIDFLITGI” the “soluble on expression in E. coli” value was “soluble”. For “MSQLEIRDLWASIDGETILKGVNLVVPKGEVHALMGPNGAGKSTLGKILAGDPEYTVERGEILLDGENILELSPDERARKGLFLAFQYPVEVPGVTIANFLRLALQAKLGREVGVAEFWTKVKKALELLDWDESYLSRYLNEGFSGGEKKRNEILQLLVLEPTYAVLDETDSGLDIDALKVVARGVNAMRGPNFGALVITHYQRILNYIQPDKVHVMMDGRVVATGGPELALELEAKGYEWLKEKVKEGA”, the “soluble on expression in E. coli” value was “soluble”. With “MSQLPTDFASLIKRFQFVSVLDSNPQTKVMSLLGTIDNKDAIITAEKTHFLFDETVRRPSQDGRSTPVLYNCENEYSCINGIQELKEITSNDIYYWGLSVIKQDMESNPTAKLNLIWPATPIHIKKYEQQNFHLVRETPEMYKRIVQPYIEEMCNNGRLKWVNNILYEGAESERVVYKDFSEENKDDGFLILPDMKWDGMNLDSLYLVAIVYRTDIKTIRDLRYSDRQWLINLNNKIRSIVPGCYNYAVHPDELRILVHYQPSYYHFHIHIVNIKHPGLGNSIAAGKAILLEDIIEMLNYLGPEGYMNKTITYAIGENHDLWKRGLEEELTKQLERDGIPKIPKIVNGFK” the “soluble on expression in E. coli” value was “soluble”. In the case of “MSQMMQMYQQVGPAQFSAMIGQFAPYFASIAPQFVELRPGYAEVTFPKRREVLNHIGTVHAIALCNAAELAAGTMTDASIPAGHRWIPRGMTVEYLAKATGDVRAVADGSQIDWQATGNLVVPVVAYVDDKPVFRAEITMYVSQA”, the “soluble on expression in E. coli” value is reported as “soluble”. For “MSQPLLAVNGLMMRFGGLLAVNNVSLELREREIVSLIGPNGAGKTTVFNCLTGFYKPTGGTITLRERHLEGLPGQQIARMGVVRTFQHVRLFREMTVIENLLVAQHQQLKTGLFSGLLKTPAFRRAQSEALDRAATWLERIGLLEHANRQASNLAYGDQRRLEIARCMVTQPEILMLDEPAAGLNPKETKELDELIAELRNHHNTTILLIEHDMKLVMGISDRIYVVNQGTPLANGTPEEIRNNPDVIRAYLGEA”, the “soluble on expression in E. coli” value was “soluble”. With “MSQVSIIIPTLNEAASLGRTLRQLTLLNPPAKEVIVVDGGSEDETIAIAKQNFESFRQATGVQVIFCERRGRSVQMNYGALSATGDILCFLHADTWVPDDLVAVIEKTLAETKVSCGGFISLMTGSQTTRWGISLHNYLKTYYAPLLFKPHLFFQGLRLLFGDQVMFCRRNDFWDCGGFNEELPIMEDGDLCLKLVQKGRIALVNRIVQSSDRRVARWGSWKATAIYLYIGVLWGIGVDANYLKQFYQDIRLEHHHHHH” the “soluble on expression in E. coli” value was “soluble”. With “MSQYSNMYKFEIDIQGNLEEVYGRIFSVLKQAGYIILSYVDVAEILQRTMQKKIDPLYILNICKPAAANEFISESYETSMFIPCKLVLHQMGENTRVSLQLISPQIETFTDLSTDVAKKYENEIVDILKKM” the “soluble on expression in E. coli” value was “not soluble”. In the case of “MSRAKAAPVAGPEVAANRAGRQARIVAILSSAQVRSQNELAALLAAEGIEVTQATLSRDLEELGAVKLRGADGGTGIYVVPEDGSPVRGVSGGTDRMARLLGELLVSTDDSGNLAVLRTPPGAAHYLASAIDRAALPQVVGTIAGDDTILVVAREPTTGAQLAGMFENLR”, the “soluble on expression in E. coli” value is reported as “soluble”. With “MSREILTVVETVSNEKGVSREAIFEALEQALVAATKKKFYEGTNAEEAQLRVEIDRKTGDYRTFRQWTLVADEDHEMPACQDAISDVDASKWSIGDVRELEVESIEFGRIAAQIAKQVIVQKIREAERALIADAYESKVGELIYGEVKKQTKDGFIIDLGDNAEAYLAREEMIAKEILRPKQRMNAILYSVNREGRGAQLLLSRARPEMLMALMKKEIPEISEEIIEIKAAARQPGVRAKIAVKTNDHRIDPVGACIGMRGTRIQAVQQELNGERIDVVVWSDDPAQYIASALEPADVSGIVLDEDTRSADIIFATNDQLARAIGSQGQNVRLASELTGYKLDMMLEEEYRARQQNEAQQYLDMFVTRLDIEEDLAMALVEMGFTSLEEIAYVPPETFDEIELDQELVELLQSRAKEAALTDALKQQENVQEPSVELLAMAGMTQELAYALAARGVVTVDDLADQATDDISDIEGLSEEKAGQLIMKARESWFNLEHHHHHH” the “soluble on expression in E. coli” value was “soluble”. For “MSRFQTLTPASLSREAFIEAFADIYEHSPWVAEKAYDLGIDDSLNDIEGLHQRMADILLSASREAQLALINAHPDLAGKAAIRGELTASSTSEQAGAGIHECSAEEFARFTELNDAYKARFGFPFIKAVKGSNRHQILAAFEERIQHSADEEFATALAEINKIALFRLQQLLEHHHHHH”, the “soluble on expression in E. coli” value was “soluble”. With “MSRGPEEVNRLTESTYRNVMEQFNPGLRNLINLGKNYEKAVNAMILAGKAYYDGVAKIGEIATGSPVSTELGHVLIEISSTHKKLNESLDENFKKFHKEIIHELEKKIELDVKYMNATLKRYQTEHKNKLESLEKSQAELKKIRRKSQGSRNALKYEHKEIEYVETVTSRQSEIQKFIADGCKEALLEEKRRFCFLVDKHCGFANHIHYYHLQSAELLNSKLPRWQETCVDAIKVPEKIMNMIEEIKTPASTPVSGTPQASPMIERSNVVRKDYDTLSKCSPKMPPAPSGRAYTSPLIDMFNNPATAAPNSQRVNNSTGTSEDPSLQRSVSVATGLNMMKKQKVKTIFPHTAGSNKTLLSFAQGDVITLLIPEEKDGWLYGEHDVSKARGWFPSSYTKLLEENETEAVTVPTPSPTPVRSISTVNLSENSSVVIPPPDYLECLSMGAAADRRADSARTTSTFKAPASKPETAAPNDANGTAKPPFLSGENPFATVKLRPTVTNDRSAPIIR” the “soluble on expression in E. coli” value was “soluble”. With “MSRIIALIISFLLVGCATPPMPAQRIVGEVRMSRPLSRIAHIDVSMFGLYEGKVREVQRTHFETGNLPLFFSIKLNPAQRGEGELYLRSTLSFPERGVQAVAQQKLTGKNKVVLQMIPKTCYPNCQLPNTR” the “soluble on expression in E. coli” value was “not soluble”. For “MSRISVENVKHVAHLARLAITDQEAEKFQKQLDAIVTFAEQLNELDTTDVKPTTHVLTMKNVMREDVPEKGLPVEEVLKNAPDHKDNQIRVPAVLE”, the “soluble on expression in E. coli” value was “not soluble”. With “MSRLGYVMTKASAKNFKVYINGSARGYRNIIINGAKSWNPSPYLNTVTMGNDVKPNFTVSSSNTNKGSVLAVCNTTYYKSNKLIVKNEITLYKGFRSLSNNHKIETVAHEFGHGFGLGHVKTRNAIMLDKGFINKTKPQKLEHHHHHH” the “soluble on expression in E. coli” value was “not soluble”. With “MSRLLLVWDAPNLDMGLGALLGGRPTTAHRPRFDAVGRWLLAKAGELAHTTGSKVESEATVFANVVPGSADSIRSWVEALRNVGFAVFAKPKLRDDTDVDPDMLAHIRKRFEEGDLAGVIVASADGRNFQETLDELASAGVAITVIGFHEHATWALADDRITFVDLEEIPGVFREPLPRVSLDNLPEEGAWLKPIRPLSALLSKSK” the “soluble on expression in E. coli” value was “not soluble”. For “MSRQACKKSFSCGSQGFSGHSAVVSGSSRSSCVARSGAASGGACGFRSGAGSLGSHSLYSLGGSKSISISVAAGGSRAGGFSGGRSSCGSGFGSGYGGSLGGSRGMGAGFGGPSGFGGAGGFGRPGSFGPGSCPGGIQEVTINQSLLQPLNVEIDPQIGQVKAQEREQIKTLNNKFASFIDKVRFLEQQNKVLETKWELLQQQTIRSGSGPQNLEPFFESCISCLRKQLDSLLGAKGSLEGELKSMQDLVEDFKKKYEEEINRRTAAENEFVGLKKDVDGAFMNKVELQAKVDSLTDEINFLRTLYDMELSQIQSHVSDTSVVLSMDNNRCLDLDSIIAEVKAQYEDIAQKSKAEAEALYQTKLGELQTTAGRHGDDLRSTKSEIMDLNRMIQRLRAEIENVKKQNTNMQTSIAEAEQRGERALKDADTKFQYLQVALQKAKEDMARLLKEYQELMNVKLALDVEIATYRKLLEGEECRLSGEFQNAVSISVVSNVTSTSSSGSFRGTGGSNYGGDSSGRSGGSSSSSSRGSSSRGSSGSRLGSGGSISVSQQRMGFNSGGSQTSVGSSYKSGRGGSSSVQFSQTTSSSQQRSK”, the “soluble on expression in E. coli” value was “soluble”. In the case of “MSRQPKPARLAGGALALGLLLGLPNPVEAAQDNGMEHSAMDHGAMPGMDHGAASPAPAQPMEHRGMDHGRMPGMSHAARQPPAQAASSQSRTPIPVPTEADRRAAFPPLEGHKVHDSALNSFFLLDQLEYQDADDGSALAWDASGWIGGDINRLWLRSEGERLDGKTEDAEVQALFGHAIGPWWDLVAGVRQDFKPGSPQTWAAFGVQGLALYDFEAEVTAFLGENGQSALRLEGEYDILLTNRLILQPSAEVNLYGRNDPARGIGSGLADSELGLRLRYEIRREFAPYIGVTWNRSYGNSADLARAEGEDDDEARFVAGIRMWFLEHHHHHH”, the “soluble on expression in E. coli” value is reported as “not soluble”.
